B1: TRAF3IP2 (parent)
chain: YGHDYPRAAYQQVIQPALPGQPLP
B2: KRT33B (parent)
chain: YQSYFKTIEELQQKILCSKSENAR

Variants of: B1
Experiment: protein stability index of a GFP-peptide fusion (GPS, HEK-293T) (PSI 1-6); higher = more stable
Conditions: c terminus: a fixed tail appended
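Note: lentivirally expressed fusions sorted by FACS into six bins by GFP to DsRed ratio, PSI derived from sequencing read proportions per bin multiplied by bin number.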

Protein stability index of substitutions, site by site:
G20: C 2.04 | F 1.8 | Q 2.04 | W 1.49 | K 2.23 | S 1.6 | N 2.68 | Y 2.66 | V 1.69 | H 2.33 | E 2.52 | R 1.52 | L 1.38 | I 1.58 | D 2.78 | M 2.27
L23: R 2.28 | W 1.72 | A 2.62 | M 2.59 | H 1.59 | T 1.99 | F 2.15 | Q 2.24 | D 2.18 | C 2.21 | G 1.77 | Y 1.7 | K 2.2 | P 1.54 | S 2.02 | V 2.5 | N 2.09 | I 2.24 | E 1.8
L18: H 1.9 | A 1.75 | D 2.17 | T 1.76 | G 2.01 | P 1.82 | S 1.6 | K 2.15 | R 2.12 | E 2.06 | C 1.86 | I 2.16 | N 2.25 | Y 2.26 | V 1.65 | F 2.59 | W 2.01 | Q 2.24 | M 1.9
A17: N 1.29 | V 2.41 | Q 1.72 | G 1.46 | K 1.98 | T 2.62 | W 1.92 | H 2.08 | C 2.32 | Y 1.83 | E 2 | M 1.95 | R 1.74 | L 3.12 | F 2.48 | D 2.36 | P 2.2 | I 2.37 | S 2.43
P19: F 2.44 | M 2.34 | Q 1.54 | G 1.9 | W 1.73 | S 2.45 | V 2.35 | N 2.07 | A 1.99 | T 2.65 | Y 1.87 | L 2.5 | E 2.42 | I 2.54 | H 1.65 | C 2.24 | K 2.14 | D 1.98 | R 1.76
P24: L 2.84 | Q 1.76 | V 2.09 | K 2.47 | G 2.12 | Y 1.6 | N 2.14 | M 2.07 | D 2.45 | H 1.83 | S 1.43 | W 2.3 | C 2 | I 1.78 | F 1.9 | T 2.59 | A 2.67 | R 1.89 | E 1.42
Q21: Y 1.88 | K 2.21 | I 2.79 | G 1.58 | C 2.74 | M 2.67 | W 1.84 | T 2.1 | N 2.08 | D 2.58 | R 2.24 | F 1.65 | E 2.2 | V 2.44 | P 2.95 | H 1.37 | A 2.12 | L 2.02 | S 1.99
P16: Q 2.03 | K 2.48 | M 1.89 | H 1.57 | A 1.94 | N 1.95 | L 1.39 | T 2.27 | D 2.22 | E 2.25 | G 1.54 | S 1.39 | W 3.06 | C 2.35 | R 1.71 | Y 2.81 | F 2.74 | I 2.79 | V 3.03
Q15: W 3.01 | Y 2.53
P22: F 2.56 | G 3.86 | R 1.79 | Q 2.24 | H 1.71 | V 1.8 | E 1.71 | T 2.33 | D 1.34 | M 1.82 | S 1.8 | C 1.62 | K 2.17 | A 1.93 | I 1.82 | W 1.26 | N 2.11 | L 1.39 | Y 1.75

Variants of: B2
Experiment: as above
Conditions: c terminus: a fixed tail appended

Protein stability index, by site and new letter:
T7: N 2.23 | D 2.42 | C 2.1 | V 2.25 | H 2.31 | E 2.31 | R 1.88 | F 2.11 | W 1.8 | L 2 | G 1.8 | K 1.88 | P 1.85 | M 2.12 | Q 1.84 | Y 2.08 | S 1.73 | A 2.21 | I 1.97
Y1: P 3.84 | D 4.28 | M 3.08 | F 1.93 | S 3.62 | Q 3.32 | K 2.88 | L 1.89 | E 3.49 | W 2.98 | H 3.04 | R 3.15 | N 3.72 | I 2.2 | G 3.08 | C 2.69 | V 2.68 | T 3.28 | A 3.35
K6: Q 1.64 | V 2.41 | A 1.43 | E 1.93 | G 1.5 | P 2.74 | T 1.79 | L 1.77 | H 1.62 | D 2.08 | F 2.25 | Y 2.55 | W 2.07 | S 2.59 | M 1.8 | N 1.88 | I 2.52 | C 3.34 | R 1.11
F5: V 2.26 | L 2.07 | W 2.44 | Q 2.78 | I 2.12 | T 2.59 | A 2.37 | N 2.91 | R 2.53 | D 3.8 | E 3.79 | M 3.48 | H 1.84 | C 2.16 | P 2.17 | G 2.92 | K 2.38 | Y 2.32 | S 2.81
Y4: E 1.88 | L 1.92 | S 1.54 | F 1.85 | V 2.19 | N 1.85 | Q 1.58 | D 2.34 | P 1.73 | R 2.25 | W 2.97 | T 1.74 | M 2.11 | C 2.01 | H 1.81 | A 2.1 | I 1.96 | K 1.5 | G 2.08
S3: I 1.67 | D 2.18 | L 1.96 | N 1.79 | F 1.46 | R 1.25 | G 1.33 | C 2.11 | H 1.59 | E 2.42 | Q 2.38 | M 1.78 | T 1.9 | W 1.79 | V 1.6 | K 1.98 | A 2.87 | P 2.41 | Y 2.54
E9: H 2.25 | M 1.78 | F 1.53 | K 2.9 | L 2.17 | G 1.86 | C 1.79 | P 1.66 | A 1.98 | D 1.9 | N 2.69 | I 1.9
I8: K 2.42 | T 1.63 | C 1.84 | F 2.01 | S 1.51 | D 2.07 | H 2.42 | V 2.19 | G 1.78 | Y 1.93 | P 2.78 | L 2.41 | Q 2.06 | M 1.79 | W 1.94 | N 2.19 | E 3 | A 2.44 | R 1.9
Q2: S 2.22 | C 1.52 | G 2.14 | D 2.98 | R 2.63 | I 2.63 | H 2.01 | A 2.54 | W 2.15 | N 2.16 | E 3.37 | T 1.76 | L 2.46 | Y 2.16 | P 2.77 | M 2.65 | F 2.5 | V 2.2 | K 3.17
